{"source": "patent US20120114659A1", "target": "human NPRA on HEK cells, without ligand (human) (UniProt P16066)", "sequence (P16066 33-1061 limits assumed)": "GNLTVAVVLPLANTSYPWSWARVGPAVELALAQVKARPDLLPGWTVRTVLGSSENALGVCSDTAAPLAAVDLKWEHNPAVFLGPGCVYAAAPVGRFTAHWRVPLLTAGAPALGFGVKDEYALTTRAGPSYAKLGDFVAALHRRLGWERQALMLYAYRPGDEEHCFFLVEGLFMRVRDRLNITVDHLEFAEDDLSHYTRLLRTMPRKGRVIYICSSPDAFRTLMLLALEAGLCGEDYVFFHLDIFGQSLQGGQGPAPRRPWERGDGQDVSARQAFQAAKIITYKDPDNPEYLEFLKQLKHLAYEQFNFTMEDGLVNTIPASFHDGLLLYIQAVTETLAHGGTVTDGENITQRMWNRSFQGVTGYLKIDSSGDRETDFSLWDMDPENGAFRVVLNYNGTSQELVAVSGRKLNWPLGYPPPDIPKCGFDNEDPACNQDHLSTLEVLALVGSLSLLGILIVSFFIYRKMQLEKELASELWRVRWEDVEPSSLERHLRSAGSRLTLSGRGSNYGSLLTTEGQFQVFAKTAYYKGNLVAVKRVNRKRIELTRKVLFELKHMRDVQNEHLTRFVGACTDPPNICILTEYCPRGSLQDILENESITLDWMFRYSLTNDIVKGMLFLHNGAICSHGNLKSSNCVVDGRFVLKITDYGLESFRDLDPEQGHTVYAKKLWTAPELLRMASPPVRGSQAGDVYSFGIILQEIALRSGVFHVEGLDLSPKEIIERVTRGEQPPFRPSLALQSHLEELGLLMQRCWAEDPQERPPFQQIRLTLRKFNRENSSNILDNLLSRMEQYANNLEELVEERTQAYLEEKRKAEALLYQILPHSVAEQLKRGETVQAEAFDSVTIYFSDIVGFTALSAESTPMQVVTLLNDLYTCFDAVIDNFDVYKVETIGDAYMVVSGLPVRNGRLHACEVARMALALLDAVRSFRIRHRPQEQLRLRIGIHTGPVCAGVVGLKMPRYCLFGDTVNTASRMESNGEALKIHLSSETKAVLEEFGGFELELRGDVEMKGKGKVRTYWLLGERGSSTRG", "assay": "cell-based or functional assay", "data": [{"substance": "BNP (B-type natriuretic peptide) (from UniProt P16860 103-134)", "values": [{"measurement": "EC50 of BNP for cGMP production in HEK NPRA cells in presence of 400 nM Fab 5504", "result": 18, "unit": "nM"}, {"measurement": "EC50 of BNP for cGMP production in HEK NPRA cells in presence of 400 nM negative control Fab", "result": 90, "unit": "nM"}]}]}
